Tests used:
MS2 coat protein = assay: apparent KD of MS2 coat protein; higher = weaker reporter binding; conditions: Eterna round: R107
Experimental: (§1)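 RNA-MaP round R107: designed RNA switches with theophylline, tryptophan, arginine or FMN aptamers are transcribed on-chip within common flanks. They are titrated with SNAP-549-labelled MS2 coat protein in RNA-MaP buffer (100 mM Tris pH 7.5, 80 mM KCl, 4 mM MgCl2), without ligand or with the indicated ligand. Median apparent KD per design.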

[1] = tested on: K4 kissing-loop RNA reporter; assay: apparent KD of K4 kissing-loop reporter; higher = weaker reporter binding; conditions: Eterna round: R107;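 note: bound reporter read as fluorescence of individual clusters on recovered sequencing chips by microscopy, with normalized cluster intensities fitted with a binding model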
Experimental: as §1, with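 “a labelled K4 kissing-loop RNA reporter” for “SNAP-549-labelled MS2 coat protein”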

[2] = input ligand: theophylline 20 uM
[3] = input ligand: theophylline 2 mM
[4] = input ligand: tryptophan 2.4 mM

Sequence | apparent KD of MS2 coat protein (MS2 coat protein; input ligand: arginine 13.2 mM) [nM] | apparent KD of MS2 coat protein (MS2 coat protein; input ligand: none) [nM] | apparent KD of MS2 coat protein (MS2 coat protein; [2]) [nM] | apparent KD of MS2 coat protein (MS2 coat protein; [3]) [nM] | apparent KD of MS2 coat protein (MS2 coat protein; [4]) [nM] | apparent KD of K4 kissing-loop reporter ([1]; input ligand: FMN 200 uM) [nM] | apparent KD of K4 kissing-loop reporter ([1]; input ligand: arginine 13.2 mM) [nM] | apparent KD of K4 kissing-loop reporter ([1]; input ligand: none) [nM] | apparent KD of K4 kissing-loop reporter [1, 2] [nM] | apparent KD of K4 kissing-loop reporter [1, 4] [nM]
AAAAUCCUACCUGAGGAUCACCCAGGUGAAGGAGCGCCCGAAAGGGCAGGUAGGUCGCACCUGAGGAUCACCCUGGUACCUAAAA [ArgAX 27 #DoubleMs2 #OpenEnded #AlternativeMS2] | 86.2 | 61 | 85.8 | 104 | 63.1 | – | – | – | – | –
AAACAGUCGGACAUGAGGAUCACCCAUGUGCGAGGACCGGUACGGCCGCCACUCGACAAGGGCGGUCCCGAAGCAAACAUACGCG [Enedquceor] | 12.2 | 16.5 | 33.7 | 21.3 | 25.4 | – | – | – | – | –
AAACAUUGCUCAGAUACCAGACAUGAGGAUCACCCAUGUACCGAGGUACCCGAAAGGAAUGUCCCUUGGCAGCUGAGCAAUGAAA [MAT - Exclusion Theophlline B - Mod of Eli - D22] | 14.2 | – | 15.3 | – | 11.4 | – | – | – | – | –
AAACGUUGCUCAGAUACCAGACAUGAGGAUCACCCAUGUACCAAGGUACCCGAAAGGAAUGUCCCUUGGCAGCUGAGCAACGAAA [MAT - Exclusion Theophlline B - Mod of Eli - D21] | 11.1 | – | 11.9 | – | 10.4 | – | – | – | – | –
AAAUAAAUACAUGAGGAUCACCCAUGUGAAGGAGCGCGCGUUAGCGCAGGUAGGUCGCACAUGAACUCCAAAGUGCGAAAGCACA [MAT - Exclusion Arginine A - Mod of Eli - D9] | 14.5 | 20 | 23.1 | 34.1 | 20.9 | – | – | – | – | –
AAAUGUACGUCGGCCGCCACUGCGCUGAAGACAGUCACAUGAGGAUCACCCAUGUACGACAAGGGUAGGACCGGGAUGUGAGGGU [Rate] | 45.1 | – | 130 | 217 | – | – | – | – | – | –
AACAUACAAUAAAAGGUGGAAAUAAGGCGGCGAGGACCGGUACGGCCGCCACUCGCGUACAUGAGGAUCACCCAUGUCUGAAACU [Same State - Tryptophan A (Freestyle 2)] | 12.5 | 22.8 | 24.2 | 28.8 | 19.1 | – | – | – | – | –
AACAUCUGGCGUGAUACCAGCCACAUGAGGAUCACCCAUGUCAACACUCGCAAUUGCGACGGCCCUUGGCAGCACGCAUCCUCAG [Sorioncege] | 49 | – | 34.8 | – | 60.9 | – | – | – | – | –
AACAUGAGGAUCACCCAUGUGUCCUCGAAACGAGGACCGGUACGGCCGCCACUCGAAAAGGUGUUGACGAAAAGUCAGCACCAAA [Mat - Exclusion - Trytophan A - D16] | 129 | 264 | 451 | 451 | 820 | – | – | – | – | –
UGUGAACAAAAGUAGAGUGGACCACUAUAGCGAGGACCGGUACGGCCGCCACUCGUACAUGAAUUCAGUGAUGUUGAAAAGAGCU [whbob_EX_Tryp_A_t13] | – | – | – | – | – | 294 | 413 | 307 | 400 | 209
UGUGAACAAAAGUAGAGUGGACCACUAUAGCGAGGACCGGUACGGCCGCCACUCGUACAUGAAUUCAGUGAUGUUGAAAUGAGCU [whbob_EX_Tryp_A_t14] | – | – | – | – | – | 234 | 360 | 334 | 426 | 213
UGUGAUGUGUAGUGUUAUGUUUUGCGGGAUACCAGAGUCUUUUUAUUCCCUUGGCAGCUUGAGUGAUGUUUGAUGCUGUUCUUGU [cxxdmullin] | – | – | – | – | – | 453 | 349 | 439 | 410 | 352
UGUGAUGUUGUGAUGUUUAGUGUUGUUGGGCAGGAUAUUGUAGAGGCGAGAAGGGCUUGUGUGAUGUAUGAGUGAUGUUUGUAGU [cffdmullin] | – | – | – | – | – | 177 | 89.6 | 127 | 142 | 119
UGUGCCAAAUGUGAUACCAGCAUCCUGCAGUGAUGUUGCAUACGAGUGAUGUUCGUCCGAUGCCCUUGGCAGCGCAGUAGUUUGA [Same State Theophylline B GF 26] | – | – | – | – | – | 264 | 263 | 307 | 326 | 239
UGUGUUGUUGUGAUGUUUGGUGUUGUAGGGCAGGAUAUCGUAGAGGCGAGAAGGGCUUGUGGGCGGUAUGAGUGAUGUUUGUAGG [cfiuxmullin] | – | – | – | – | – | 116 | 77.6 | 124 | 143 | 101
UUAACCAACAGCGAUACCAGCGUGGAGUGAUGUUCCGAGGAUCGGAGUGAUGUUCCGAAGCGCCCUUGGCAGCGCAGAAGCGCAA [Exclusion Theophylline B GF8] | – | – | – | – | – | 193 | 148 | 241 | 251 | 255
UUAAUAUUGUCGGCCGCCACUGGAUAGUAAUUUGUAUAAUCUAUUUCAAAGUGAUGUUUUGAGUCCAGGACCGGGACAUUUGAUA [JR_Nu_ExcTryptoB_Sub030] | – | – | – | – | – | 503 | 363 | 455 | 406 | 297
UUAGAGAUCUCAGGAUAUCAGUGAUGUUGAGAUUCAGAUCUGAGAUAGAAUUCUAUCUCAGAUCAAUGAGAAGGGAGAUCUCAUU [AK4.4 Exc FMN B] | – | – | – | – | – | 463 | 540 | 649 | 699 | 443
UUAGAUCUUCUAGAUACCAGUCUGUGUAUCAAUGAUACACUUGACUGAGUGAUGUUCAGAGGCCCUUGGCAGCUAGAAGAUCAUU [AK1 SS Theophylline B] | – | – | – | – | – | 761 | 473 | 727 | 849 | 490
UUAGGAGUGGAAGGAUAUCCUGGUGUGGGUGAUGUUAGUGAUGUUGAAAGUGCAGUGAUGUUGUGCGGAGAAGGUCCGGUGUUGA [BDazzled - #8 - Exc. FMN B] | – | – | – | – | – | 147 | 124 | 176 | 243 | 145
